PMC5241739, “Structure of the Toll/Interleukin-1 Receptor (TIR) Domain of the B-cell Adaptor That Links Phosphoinositide Metabolism with the Negative Regulation of the Toll-like Receptor (TLR) Signalosome*^([image sbox.jpg])” (The Journal of Biological Chemistry, 2016)

B1: BCAPS, splice variant of BCAP (natural protein, human, UniProt Q6ZUJ8-2 1-627, looked up)
chain: MVVQPDRIRCGAETTVYVIVRCKLDDRVATEAEFSPEDSPSVRMEAKVENEYTISVKAPNLSSGNVSLKIYSGDLVVCETVISYYTDMEEIGNLLSNAANPVEFMCQAFKIVPYNTETLDKLLTESLKNNIPASGLHLFGINQLEEEDMMTNQRDEELPTLLHFAAKYGLKNLTALLLTCPGALQAYSVANKHGHYPNTIAEKHGFRDLRQFIDEYVETVDMLKSHIKEELMHGEEADAVYESMAHLSTDLLMKCSLNPGCDEDLYESMAAFVPAATEDLYVEMLQASTSNPIPGDGFSRATKDSMIRKFLEGNSMGMTNLERDQCHLGQEEDVYHTVDDDEAFSVDLASRPPVPVPRPETTAPGAHQLPDNEPYIFKVFAEKSQERPGNFYVSSESIRKGPPVRPWRDRPQSSIYDPFAGMKTPGQRQLITLQEQVKLGIVNVDEAVLHFKEWQLNQKKRSESFRFQQENLKRLRDSITRRQREKQKSGKQTDLEITVPIRHSQHLPAKVEFGVYESGPRKSVIPPRTELRRGDWKTDSTSSTASSTSNRSSTRSLLSVSSGMEGDNEDNEVPEVTRSRSPGPPQVDGTPTMSLERPPRVPPRAASQRPPTRETFHPPPPVPPRGR
notes: The first residue is worked out from the legend's words 'lacks the first 180 amino acids'; source: cloned into pMCSG7, purified (StrepTrap, S200 size exclusion)
B2: Full-length BCAP, BCAPL (1–805) (natural protein, human, UniProt Q6ZUJ8-1 1-805, looked up)
chain: MAASGVPRGCDILIVYSPDAEEWCQYLQTLFLSSRQVRSQKILTHRLGPEASFSAEDLSLFLSTRCVVVLLSAELVQHFHKPALLPLLQRAFHPPHRVVRLLCGVRDSEEFLDFFPDWAHWQELTCDDEPETYVAAVKKAISEDSGCDSVTDTEPEDEKVVSYSKQQNLPTVTSPGNLMVVQPDRIRCGAETTVYVIVRCKLDDRVATEAEFSPEDSPSVRMEAKVENEYTISVKAPNLSSGNVSLKIYSGDLVVCETVISYYTDMEEIGNLLSNAANPVEFMCQAFKIVPYNTETLDKLLTESLKNNIPASGLHLFGINQLEEEDMMTNQRDEELPTLLHFAAKYGLKNLTALLLTCPGALQAYSVANKHGHYPNTIAEKHGFRDLRQFIDEYVETVDMLKSHIKEELMHGEEADAVYESMAHLSTDLLMKCSLNPGCDEDLYESMAAFVPAATEDLYVEMLQASTSNPIPGDGFSRATKDSMIRKFLEGNSMGMTNLERDQCHLGQEEDVYHTVDDDEAFSVDLASRPPVPVPRPETTAPGAHQLPDNEPYIFKVFAEKSQERPGNFYVSSESIRKGPPVRPWRDRPQSSIYDPFAGMKTPGQRQLITLQEQVKLGIVNVDEAVLHFKEWQLNQKKRSESFRFQQENLKRLRDSITRRQREKQKSGKQTDLEITVPIRHSQHLPAKVEFGVYESGPRKSVIPPRTELRRGDWKTDSTSSTASSTSNRSSTRSLLSVSSGMEGDNEDNEVPEVTRSRSPGPPQVDGTPTMSLERPPRVPPRAASQRPPTRETFHPPPPVPPRGR
notes: B-cell adaptor for phosphoinositide 3-kinase (BCAP), human, full-length form BCAPL, residues 1-805; Cloned into the same vector as the His6-tagged TIR domain; source: cloned into pMCSG7, purified (StrepTrap, S200 size exclusion)
B3: BCAP330, the first 330 residues of BCAPL (domain or fragment, human, UniProt Q6ZUJ8-1 1-330, looked up)
chain: MAASGVPRGCDILIVYSPDAEEWCQYLQTLFLSSRQVRSQKILTHRLGPEASFSAEDLSLFLSTRCVVVLLSAELVQHFHKPALLPLLQRAFHPPHRVVRLLCGVRDSEEFLDFFPDWAHWQELTCDDEPETYVAAVKKAISEDSGCDSVTDTEPEDEKVVSYSKQQNLPTVTSPGNLMVVQPDRIRCGAETTVYVIVRCKLDDRVATEAEFSPEDSPSVRMEAKVENEYTISVKAPNLSSGNVSLKIYSGDLVVCETVISYYTDMEEIGNLLSNAANPVEFMCQAFKIVPYNTETLDKLLTESLKNNIPASGLHLFGINQLEEEDMMTN
notes: B-cell adaptor for phosphoinositide 3-kinase (BCAP), human, the N-terminal 330 residues (TIR and DBB domains); also called N-terminal variant; source: cloned into pMCSG7, purified (StrepTrap, S200 size exclusion)

Biological target: the molecule itself
Test: AUC; sedimentation velocity, Beckman XL-A, 0.3 to 1 mg/ml, 30,000–40,000 rpm, c(S) and c(M) analysis with SEDFIT

Stoichiometry N, 2:
B1
B2
B3
